Source: FireProtDB (doi:10.1016/j.str.2006.07.007)

B1: Azurin, P00282 (parent)
chain: MLRKLAAVSLLSLLSAPLLAAECSVDIQGNDQMQFNTNAITVDKSCKQFTVNLSHPGNLPKNVMGHNWVLSTAADMQGVVTDGMASGLDKDYLKPDDSRVIAHTKLIGSGEKDSVTFDVSKLKEGEQYMFFCTFPGHSALMKGTLTLK

Variants of: B1
Conditions: Pseudomonas aeruginosa (strain ATCC 15692 / DSM 22644 / CIP 104116 / JCM 14847 / LMG 12228 / 1C / PRS 101 / PAO1); pH 7; 25 °C; GdnHCl; Fluorescence; Phosphate 100 mM; reversible: Yes; structure 5AZU; whole UniProt chain shown

## I27A
  ddG of mutation (higher = less stable): 3.11 kcal/mol
  unfolding free energy: 2.87 kcal/mol

## A102G
  ddG of mutation (higher = less stable): 3.11 kcal/mol
  unfolding free energy: 2.87 kcal/mol

## L145A
  ddG of mutation (higher = less stable): 0.72 kcal/mol
  unfolding free energy: 5.26 kcal/mol

## V80G
  ddG of mutation (higher = less stable): 3.11 kcal/mol
  unfolding free energy: 2.87 kcal/mol

## V25A
  ddG of mutation (higher = less stable): 0 kcal/mol
  unfolding free energy: 5.98 kcal/mol
